Laboratory results taken from article PMC4631608 (Journal of structural and functional genomics, 2015).

Biological target: the molecule itself
Test: SEC

B1: M. tuberculosis Rv1496 (natural protein)
chain: MMAASHDDDTVDGLATAVRGGDRAALPRAITLVESTRPDHREQAQQLLLRLLPDSGNAHRVGITGVPGVGKSTAIEALGMHLIERGHRVAVLAVDPSSTRTGGSILGDKTRMARLAVHPNAYIRPSPTSGTLGGVTRATRETVVLLEAAGFDVILIETVGVGQSEVAVANMVDTFVLLTLARTGDQLQGIKKGVLELADIVVVNKADGEHHKEARLAARELSAAIRLIYPREALWRPPVLTMSAVEGRGLAELWDTVERHRQVLTGAGEFDARRRDQQVDWTWQLVRDAVLDRVWSNPTVRKVRSELERRVRAGELTPALAAQQILEIANLTDR
For B1, the “stoichiometry N” value was 2.
